Test results as given in the supplement of paper PMC9170038.

Tested on: MS2 coat protein
Assay: apparent KD of MS2 coat protein; designed switch direction (-1 OFF switch, 1 ON switch): -1; higher = weaker reporter binding
Summary of the method: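 Apparent KD, taken as the median over clusters for each design, was obtained by curve-fitting normalised cluster fluorescence. Designed RNA switches had been transcribed on Illumina chips by stalled E. coli RNA polymerase and titrated with SNAP-549-labelled MS2 coat protein, doubling from 0.7 or 1.5 nM to 3 µM.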

[1] = input ligand: microRNA oligo, concentration not stated
[2] = Eterna round: R95, input ligand: microRNA oligo, concentration not stated
[3] = Eterna round: R95, input ligand: FMN 200 uM
[4] = Eterna round: R95, input ligand: none

CUUGUUUAUGUAGGAUAUGCCUGGCGUGCCUUUGCAGAAGGACAUGAGGAUCACCCAUGUAACAUGAGGCUCACCCAUGUCGCU [salish99_ExNG1_r04_106] (Eterna round: R96, puzzle: Exclusion NG 1)
apparent KD of MS2 coat protein (input ligand: FMN 200 uM): 434 nM | apparent KD of MS2 coat protein [1]: 224 nM | apparent KD of MS2 coat protein (input ligand: none): 292 nM

GUCUGCACGCUGCGGUCCUACAUGAGGAUCACCCAUGUGGUCUGGUGGCGUGGGUCGCCGGACUUGGCUCGUCUUGG [salish99_S_TOV1_R5_048] (Eterna round: R97, puzzle: Sensor, turn-off variant 1)
apparent KD of MS2 coat protein (input ligand: FMN 200 uM): 14.8 nM | apparent KD of MS2 coat protein (input ligand: none): 14.7 nM

CUCCUCCCGAAGGAUAUCCACGCCAACUUCGUAGGAGAAGGUCGGACAUGAGGAUCACCCAUGUGGCCAUGGUU [Gezateza] (puzzle: Exclusion 6)
apparent KD of MS2 coat protein [2]: 16 nM

GUUAACGAUGAGGAUAUAUGAUAUCAAAGCAUCAUAGAAGGCAUCACAUGAGGAUCACCCAUGUGAUCUUCUUG [Mat - Exclusion 6 - JL Mod - D27] (Eterna round: R97, puzzle: Exclusion 6)
apparent KD of MS2 coat protein (input ligand: FMN 200 uM): 120 nM | apparent KD of MS2 coat protein (input ligand: none): 29.4 nM

ACAUGAGGAUCACCCAUGUCAGGUGGGUCCUCUCCGGCUGUUGAGGAUAUAGUCCGGUAUCCGCGCUAGAAGGUGAGGGCUGGC [Aenatbe mod 16] (Eterna round: R96, puzzle: Exclusion NG 3)
apparent KD of MS2 coat protein (input ligand: FMN 200 uM): 42.8 nM | apparent KD of MS2 coat protein [1]: 23.8 nM | apparent KD of MS2 coat protein (input ligand: none): 38.4 nM

UUAAAGGCAGGAUAUACAUUUUUUUUAUUAUCCUCAUUAUUACAUGAGGAUCACCCAUGUAGAAGGGCCAAAUU [Mat - Exclusion 2 - Mod of Hog - D85] (Eterna round: R96, puzzle: Exclusion 2)
apparent KD of MS2 coat protein (input ligand: FMN 200 uM): 312 nM | apparent KD of MS2 coat protein [1]: 187 nM | apparent KD of MS2 coat protein (input ligand: none): 357 nM

UUUCCACAUGAGGAUCACCCAUGUCAGGAUAUUAUAGUUGGCCGAAAGGCGUCAGUGGUAAGAAGGGACGUUGA [Eternabot (L2) Solution 46] (Eterna round: R97, puzzle: Exclusion 1)
apparent KD of MS2 coat protein (input ligand: FMN 200 uM): 16.1 nM | apparent KD of MS2 coat protein (input ligand: none): 15.8 nM

AAAUUGCUAGAGGAUAUCGGAUAGGAUUUAUUACGAGAAGGUUAGACAUGAGGAUCACCCAUGUUCUGUUGGGA [EX6 #24] (Eterna round: R97, puzzle: Exclusion 6)
apparent KD of MS2 coat protein (input ligand: FMN 200 uM): 89.5 nM | apparent KD of MS2 coat protein (input ligand: none): 36.9 nM

UUUAUGUAAGGAUAUAUGGGUUUAAAUGAAAAUUUGGGCCCAUAGAAGGUACAUGAGGAUCACCCAUGUAGUGG [-24.4, -24.3 kcal, 32% A] (Eterna round: R97, puzzle: Exclusion 4)
apparent KD of MS2 coat protein (input ligand: FMN 200 uM): 474 nM | apparent KD of MS2 coat protein (input ligand: none): 641 nM

AAGCCUGGCUCAGGAUAUACAUGAGGAUCACCCAUGUUCUCAGUGAGGCAAGAUAACAACACGACGUAGAAGGGAGCUAGGCCG [Eternabot solution 5] (Eterna round: R96, puzzle: Exclusion NG 2)
apparent KD of MS2 coat protein (input ligand: FMN 200 uM): 81.7 nM | apparent KD of MS2 coat protein [1]: 17.9 nM | apparent KD of MS2 coat protein (input ligand: none): 40 nM

AAAUUGUGAGGAUAUCCAAUAUAUGACAUGAGGAUCACCCAUGUUUCCACUCGUACCUCCGGAGAAGGCACUGCAA [Ex5 #39] (Eterna round: R97, puzzle: Exclusion 5)
apparent KD of MS2 coat protein (input ligand: FMN 200 uM): 22.3 nM | apparent KD of MS2 coat protein (input ligand: none): 27.2 nM

ACAUGUGUUGUAGGAUAUAGGAUACAUGAGGAUCACCCAUGUGGAUUCAUGUCAAAGGAAACGUCCUAGAAGGACGACAACAUG [Ex NG2 #23] (Eterna round: R96, puzzle: Exclusion NG 2)
apparent KD of MS2 coat protein (input ligand: FMN 200 uM): 176 nM | apparent KD of MS2 coat protein [1]: 53.2 nM | apparent KD of MS2 coat protein (input ligand: none): 84.3 nM

UAUAAUACAUAGGAUAUCGAAAUAAUCAUUUAACGAGAAGGAUGAACAUGAGGAUCACCCAUGUGGUAUCAUGG [Mat - Exclusion 6 - JL Mod - D11] (puzzle: Exclusion 6)
apparent KD of MS2 coat protein [3]: 379 nM | apparent KD of MS2 coat protein [2]: 328 nM | apparent KD of MS2 coat protein [4]: 319 nM

ACUCAGUCAGGAUAUCAAUCCGCCUGUGAUACGCAGGCGGCUGAGAAGGGACAUGAGGAUCACCCAUGUAAAGA [jl-ex4-4.18 ViennaUCT mod] (Eterna round: R97, puzzle: Exclusion 4)
apparent KD of MS2 coat protein (input ligand: FMN 200 uM): 538 nM | apparent KD of MS2 coat protein (input ligand: none): 129 nM

GUGAAACAUGAGGAUCACCCAUGUGAGGAUAUGAUUUAGUAAUGAUGAAAGUAAAUAUUCAGAAGGCACAAUGG [Mat - Mod of JL D71] (puzzle: Exclusion 1)
apparent KD of MS2 coat protein [3]: 74.2 nM | apparent KD of MS2 coat protein [2]: 92.7 nM | apparent KD of MS2 coat protein [4]: 90.2 nM

UAAGUGUGAGGAUAUGGUAAAGAUAAGAUGAUGAAAGAACUCCAGAAGGCACAUGAGGAUCACCCAUGUAGAUG [JL-ex4-2.11 Jieux mod] (puzzle: Exclusion 4)
apparent KD of MS2 coat protein [2]: 35.3 nM

ACAAGCUUUUUGUUCGUCUUAUAAUAUUCAAUAAGGAUAACAUGAGGAUCACCCAUGUAACAAAGACGGACUCAUGU [Sesor Array 15 - Jieux - Sensor v3, turn-off variant 2] (puzzle: Sensor v3, turn-off variant 2)
apparent KD of MS2 coat protein [3]: 17.2 nM | apparent KD of MS2 coat protein [2]: 133 nM | apparent KD of MS2 coat protein [4]: 13 nM

GUCAGCUCGUCAGGAUAUACAUCACUGCUUCGGCAGUGUAUUAAGAUCACAUGAGGAUCACCCAUGUAGAAGGGACGAGCUGAU [ENG2/2-B2] (Eterna round: R96, puzzle: Exclusion NG 2)
apparent KD of MS2 coat protein (input ligand: FMN 200 uM): 322 nM | apparent KD of MS2 coat protein [1]: 18.4 nM | apparent KD of MS2 coat protein (input ligand: none): 25.8 nM

GCAGCAAUCUCAAUUAAAACCACAUGAGGAUCACCCAUGUCUCAGGAUAUGGUCUGGAUUACAGGCCAGAAGGGAGAAAGCUGC [Eli exng3 - 053] (Eterna round: R96, puzzle: Exclusion NG 3)
apparent KD of MS2 coat protein (input ligand: FMN 200 uM): 13.5 nM | apparent KD of MS2 coat protein [1]: 10.2 nM | apparent KD of MS2 coat protein (input ligand: none): 13 nM

AUAGGUUCGUAGGAUAUUCCUGCAGGCGCGCUGGAAGAAGGAUGAACAUGAGGAUCACCCAUGUGAACACUCCG [Eternabot (L2) Solution 88] (Eterna round: R97, puzzle: Exclusion 6)
apparent KD of MS2 coat protein (input ligand: FMN 200 uM): 78.3 nM | apparent KD of MS2 coat protein (input ligand: none): 19.6 nM

GCAGGCGUCUUGGCUCGUCUUAUUUGGAGAGGAUUGAUAACAUGAGGAUCACCCAUGUGUGUGGGAGAGUUGCAGUG [JR_SV3TOV2_Sub017] (puzzle: Sensor v3, turn-off variant 2)
apparent KD of MS2 coat protein [3]: 293 nM | apparent KD of MS2 coat protein [2]: 203 nM | apparent KD of MS2 coat protein [4]: 374 nM

UUAUGAGUAGGAUAUGAGCCAAAAUACAUGAGGAUCACCCAUGUCGGGUUCAUGGAGGGCUCAGAAGGAUUCAAUA [Exclusion 5 - Laarte Mod] (Eterna round: R97, puzzle: Exclusion 5)
apparent KD of MS2 coat protein (input ligand: FMN 200 uM): 105 nM | apparent KD of MS2 coat protein (input ligand: none): 17 nM

UAUUUACAUGAGGAUCACCCAUGUCAGGAUAUGCUCGAUAUAUGGAAACAUAUAUCGAGCAGAAGGGACUAGCG [Jieuxxlusion 7 - Jieux - Exclusion 1] (Eterna round: R97, puzzle: Exclusion 1)
apparent KD of MS2 coat protein (input ligand: FMN 200 uM): 152 nM | apparent KD of MS2 coat protein (input ligand: none): 72.7 nM

GUGGUACAUGAGGAUCACCCAUGUCAGGAUAUCGUGUGUUUUUUUUCGGCCGCGCGUGCGAGAAGGGACGUCUU (puzzle: Exclusion 1)
apparent KD of MS2 coat protein [2]: 17.3 nM

GGGAAGGGAGGAUAUGAGGAAGAGAACAUGAGGAUCACCCAUGUGAGGCCUCAGGAUCGAUCAGAAGGCCCGAUCC [AK-MS2ROC-r4-exclusion5-15] (Eterna round: R97, puzzle: Exclusion 5)
apparent KD of MS2 coat protein (input ligand: FMN 200 uM): 297 nM | apparent KD of MS2 coat protein (input ligand: none): 142 nM

CUCAUGUGAGGAUAUGUGAUCUGCUUUCUGUGUAGAUGAUCACAGAAGGCACAUGAGGAUCACCCAUGUAGAUC [Ex4 - 3 - 28] (Eterna round: R96, puzzle: Exclusion 4)
apparent KD of MS2 coat protein (input ligand: FMN 200 uM): 65.7 nM | apparent KD of MS2 coat protein [1]: 93.9 nM | apparent KD of MS2 coat protein (input ligand: none): 91 nM

CCUCCACAUGAGGAUCACCCAUGUCAGGAUAUCGUGUGUGCGUUUUCGGUCUUUCGCGCGAGAAGGGACGUCUG (puzzle: Exclusion 1)
apparent KD of MS2 coat protein [2]: 28.8 nM

AAGUACCGUCACGAUAGUGAUGGUACAACAAGCAGGUGAACAUGAGGAUCACCCAUGUCCUCAAUUGCUCGUCUUAU [Sensor 3 - 73] (puzzle: Sensor v3, turn-off variant 2)
apparent KD of MS2 coat protein [3]: 156 nM | apparent KD of MS2 coat protein [2]: 48.3 nM | apparent KD of MS2 coat protein [4]: 159 nM

GCUCUCUCUCUGUCUCUCUACAUGAGGAUCACCCAUGUGUCUCGCUCGCUCUCUCUCUCUCUUUCUCUCUCUCUCUU [Default title] (Eterna round: R97, puzzle: Sensor, turn-off variant 1)
apparent KD of MS2 coat protein (input ligand: FMN 200 uM): 104 nM | apparent KD of MS2 coat protein (input ligand: none): 135 nM

AUAAAGUCAGGAUAUCGAAGUGAGUGGUGGAGGGUAAGGUACGAGAAGGGACAUGAGGAUCACCCAUGUAGGAA [JR_Exclusion4)Sub005] (puzzle: Exclusion 4)
apparent KD of MS2 coat protein [3]: 24 nM | apparent KD of MS2 coat protein [2]: 27.2 nM | apparent KD of MS2 coat protein [4]: 29.5 nM

CAGCCAAGUGUGAGGAUAUGGCGAUUGCAUUGACGUCAGAAGGCACAUGAGGAUCACCCAUGUGAGGUGGAUGA [Eternabot (L2) Solution 25] (Eterna round: R97, puzzle: Brourd's mod of Exclusion 4)
apparent KD of MS2 coat protein (input ligand: FMN 200 uM): 45.8 nM | apparent KD of MS2 coat protein (input ligand: none): 755 nM

GGCAUGUAAGGAUAUGCCACGGAGGCCUUUGGCCUCCGAAAGCAGAAGGUACAUGAGGAUCACCCAUGUGAUAA [jl-ex4-4.59 ViennaUCT mod] (Eterna round: R97, puzzle: Exclusion 4)
apparent KD of MS2 coat protein (input ligand: FMN 200 uM): 467 nM | apparent KD of MS2 coat protein (input ligand: none): 390 nM

UUUUCACAUGAGGAUCACCCAUGUGAGGAUAUGGAUUCGCUGGCCGUAGCCAGUGGAUCCAGAAGGCGCAUGAU [JL-ex1-4.06] (Eterna round: R97, puzzle: Exclusion 1)
apparent KD of MS2 coat protein (input ligand: FMN 200 uM): 36 nM | apparent KD of MS2 coat protein (input ligand: none): 32.8 nM

CUUGUACAUGAGGAUCACCCAUGUUAGGAUAUCUCGCCGUCGGCUUGCCGACGGUAUUAGAGAAGGGACUUGGG [JL Tixe mod 6] (puzzle: Exclusion 1)
apparent KD of MS2 coat protein [2]: 50.8 nM
